According to US12312397B2, “Anti-O2 antibodies and uses thereof” (priority 2016, dated 2025):
Substitutions are numbered along the chain they refer to.

B1: KPS44: Class III anti-O2 antigen human mAb; VH SEQ ID NO: 116, VL SEQ ID NO: 117 (antibody, V domains shown)
VH: EVHLVESGGGLVKPGGSLRLSCAASGFTFKNAWMSWIRQAPGKGLEWVGRVKSEVDGGTIDYGVPVRGRFTISRDDSQGTLSLEMNSLKDDDTGVYYCRAFWSGFPTGYWGQGALVSVSS
VL: QSVLTQPPSLSAAPGQTITIACSGTSSNIGSDSVSWFQQFPGTAPRVLIYENNKRPSGISDRFSGSKSGTSVTLGITGLQTGDEADYYCATWDSSLSAYVFGSGTKVTVL
modifications: Description of Artificial Sequence: SyntheticKPS44/KPS44-G1 VH polypeptide; Description of Artificial Sequence: SyntheticKPS44 VL polypeptide
B2: KPS44v2017: sequence-optimized KPS44, Class III; VH SEQ ID NO: 202, VL SEQ ID NO: 203 (antibody, V domains shown)
VH: B1 VH with W102F
VL: B1 VL with D32N, S33Y, W92F
modifications: Description of Artificial Sequence: SyntheticKPS44-v2017/KPS44-G2/KPS44-G3 VH polypeptide; Description of Artificial Sequence: SyntheticKPS44-v2017/KPS44-G1 VL polypeptide
B3: KPL36: Class II anti-O2 antigen human mAb; VH SEQ ID NO: 189, VL SEQ ID NO: 192 (antibody, V domains shown)
VH: EVQLVESGGGVVQSGGSLRLSCETSGFTFISSWMSWVRQAPGTGLEWVATINPDGTETPYADSLKGRFTISRDNTKKSLYLQIHSLRADDTAVYFCARNKAYNAHDFWGQGTLVMVSS
VL: QSALTQPPSASGSPGQSVTISCTGTSSDVGGNNFVSWYQQYPGKAPKLIIYEVNKRPSGVPDRFSGSKSGNTASLTVSGLQAEDEADYYCGAFGGSKMFGGGTKLTVL
modifications: Description of Artificial Sequence: SyntheticKPL36 VH polypeptide; Description of Artificial Sequence: SyntheticKPL36 VL polypeptide
B4: KPN44: anti-O2 antigen human mAb; VH SEQ ID NO: 62, VL SEQ ID NO: 63 (antibody, V domains shown)
VH: QVQLQESGPGLVKPSETLSLTCTVSGGSTSSYYWNWIRQAPGKPLQWIANIHHGGTTYYNPSLRSRVTMSLDTSNNQFSLKLTSVTAADTAVYFCARESDDGYRWNYFDYWGQGVLVTVSS
VL: EIVLTQSPASLSLSPGDRATLSCRASQTITNYLAWYQHKPGQAPRLLIFDMSKRATGIPARFSGSGSGTDFTLTISSLEPEDFAVYYCQHRSNWPLFTFGPGTNVDIK
modifications: Description of Artificial Sequence: SyntheticKPN44 VH polypeptide; Description of Artificial Sequence: SyntheticKPN44 VL polypeptide

What was measured:
[1] = test system: O1 LPS activation of NF-κB in RAW264.7-lux cells; experiment: LPS neutralization assay (NF-κB luciferase, RAW264.7-lux), O1 LPS; format: cell-based, murine; settings: for neutralizing activity against O1 LPS (NF-κB activation): human IgG1 format
Protocol: (§1) Activation of TLR4 receptors by bacterial LPS leads to downstream activation of the NF-κB transcriptional regulator. A decrease in induction of NF-κB-responsive luciferase activity was used to quantify LPS neutralization activity by LPS mAbs. A murine RAW264.7 macrophage cell line was engineered to carry a firefly luciferase reporter gene under the control of an NF-κB-responsive promoter (RAW264.7-lux). Serially diluted antibody stocks were mixed with LPS in a 1:1 ratio and incubated at 4° C. for 1 hr. Antibody/LPS mixtures were then diluted 1:10 into assay plates containing pre-seeded RAW264.7-lux cells (4e5 cells/well), which were then placed at 37° C. with 5% CO2 for 2.5 hours. Following incubations, Steady Glo solution (Promega) was added to each well and incubated for another 20 min protected from light. The relative light units (RLUs) were measured using a multi-mode microplate reader (Synergy 2, Biotek or envision multilabel plate reader, Perkin Elmer). The percentage of inhibition was determined by comparing RLU derived from assays with no antibodies to RLU derived from assays with anti-K. pneumoniae mAbs and assays performed with a negative control mAb. […] All mAbs were tested in human IgG1 format.

[2] = test system: O2 LPS activation of NF-κB in RAW264.7-lux cells; experiment: LPS neutralization assay (NF-κB luciferase, RAW264.7-lux), O2 LPS; format: cell-based, murine; set-up: key to LPS Neut O2: +++: Strongly positive activity; +: Positive activity; +/−: Somewhat positive depending upon the test conditions; settings: for LPS Neut O2: Table 7 summary; for neutralizing activity against O2 LPS (NF-κB activation): human IgG1 format; for neutralization of LPS-O2: secondary screening
Protocol: as §1

[3] = test system: K. pneumoniae 8570ΔcpsBLux (O2); experiment: Opsonophagocytic killing (OPK) assay, O2 capsule mutant; format: cell-based, Klebsiella pneumoniae; set-up: key to D Capsule OPK O2: +++: Strongly positive activity; +: Positive activity; +/−: Somewhat positive depending upon the test conditions; settings: for D Capsule OPK O2: capsule mutant strain 8570ΔcpsB lux (O2); for OPK activity against O2 capsule mutant: secondary screening
Protocol: (§2) OPK activity of anti-O2 LPS mAbs was tested against O1 and O2 strains. Briefly, log phase cultures of luminescent K. pneumoniae strains 8570ΔcpsBLux (O2) and 43816ΔcpsBLux (O1) were diluted to ˜2×10^6 cells/ml. K. pneumoniae cells, 5e5/well dimethylformamide (DMF) differentiated HL-60 cells, cleared baby rabbit serum (1:10 Cedarlane), and a series dilution of antibodies (2 ng-2.5 μg/mL) were mixed in 96-well plates and incubated at 37° C. for two hours with shaking (250 rpm). The relative light units (RLUs) were then measured using a multi-mode microplate reader (Synergy 2, Biotek or envision multilabel plate reader, Perkin Elmer). The percentage of killing was determined by comparing RLU derived from assays with no antibodies to RLU derived from assays with anti-K. pneumoniae mAbs and assays performed with a negative control mAb. Positive killing was determined where the percentage of killing is above 40%.

[4] = test system: K. pneumoniae O2; experiment: Mouse protection models (O2), Table 7 summary; format: in vivo, Klebsiella pneumoniae; set-up: key: +++: Strongly positive activity; +: Positive activity; +/−: Somewhat positive depending upon the test conditions; settings: mouse pneumonia models
Protocol: As described in more detail in below, anti-O2 LPS mAbs were tested for: 1) binding to O1 and O2 LPS (see Example 5); 2) LPS neutralization (LPS-Neut) against O1 and O2 LPS (see Example 7); 3) OPK against capsule mutant strain 43816ΔcpsB lux (O1) and 8570ΔcpsB lux (O2) (see Example 8); and 4) protective activity in pneumonia models (see Example 9). O2 LPS mAbs were subsequently divided into three classes based on their in vitro activities. Class I mAbs were characterized as Binding (O1+O2+)/OPK (O1−O2+); Class 2 mAbs were characterized as Binding (O1+O2+)/OPK (O1+O2+); and Class III mAbs were characterized as Binding (O1±O2+)/OPK (O1−O2+).
(§3) C57/BL6 mice were obtained from Jackson Laboratories and maintained in a special pathogen-free facility. All animal experiments were conducted in accordance with Institutional Animal Care and Use Committee (IACUC) protocol and guidance. K. pneumoniae strains were grown on agar plates overnight and diluted in saline at proper concentration. The inoculum titer was determined by plating a serial dilution of bacteria onto agar plates prior to and post challenge. In acute pneumonia models, C57/BL6 mice were inoculated with 1e4 to 2e8 colony-forming units (CFU) of K. pneumoniae clinical isolates in 50 μl saline intranasally. Anti-K pneumoniae monoclonal antibodies (mAbs) and human IgG1 control antibodies were given 1-24 hour post bacterial challenge (therapeutic dosing). Mouse survival was monitored daily until up to day 8. Survival data of representative experiments were plotted in Graphpad Prism software.
(§4) Mice were challenged with 2e8 CFU of Klebsiella pneumoniae Carbanpenemase (KPC) strain Kp961842_O2 or with 3e8 CFU of KPC strain Kp977778_O2, followed by the administration of anti-O2 mAbs. When administered at a concentration of 2 mg/kg 1 hour post bacterial infection, Class III anti-O2 LPS mAbs KPN42, KPN179-IgG1, and KPS44v2017 protected mice from lethal bacterial challenge with the multi-drug resistant KPC strains Kp961842_O2 (FIG. 6, left panel, and FIG. 10) and Kp977778_O2 (FIG. 6B, right panel).

[5] = test system: KPC strain Kp961842_O2; experiment: Lethal pneumonia model, KPC strain Kp961842_O2; format: in vivo, Klebsiella pneumoniae; settings: C57/BL6 mice, 2e8 CFU; mAb 2 mg/kg 1 hour post infection; survival
Protocol: as §3, §4

[6] = test system: KPC strain Kp977778_O2; experiment: Lethal pneumonia model, KPC strain Kp977778_O2; format: in vivo, Klebsiella pneumoniae; settings: C57/BL6 mice, 3e8 CFU; mAb 2 mg/kg 1 hour post infection; survival
Protocol: as §3, §4

[7] = test system: O1 LPS; experiment: ELISA binding to O1 LPS; set-up: species or system Klebsiella pneumoniae; settings: secondary screening
Protocol: (§5) The coated plates were incubated with cell culture supernatants from polyclonally stimulated lymphocytes (AMVBRA) or from monoclonal immortalized B cells (donor interrogations) containing fully human antibodies or with diluted plasma samples (PBMC donor selections) for 1 hour at room temperature. The plates were then washed with PBS containing 0.1% Tween-20 (PBS-T). Secondary antibody was added; either Alkaline Phosphatase-conjugated Goat Anti-Human IgG-AP (Southern Biotech, 2040-04, 1:1000 in PBS-B) or Peroxidase AffiniPure F(ab′)2 Fragment Goat Anti-Human IgG, Fc Fragment Specific (Jackson ImmunoResearch #309 036 098, 1:5000 in PBS-B) were used. Secondary antibodies were typically incubated for 1 h. Plates were washed three times with PBS-T, and P-NitroPhenyl Phosphate (pNPP, Sigma-Aldrich, cat #N2765-100TAB) or Sureblue (KPL, 53-00-03) substrates were added and incubated for 10 min or until the development of a colorimetric reaction. In the case of the HRP substrate Sureblue, the reaction was stopped by adding an equal volume of 0.2N HCl. The absorbance at 405 nm (pNPP) or 450 nm (Sureblue) was measured by a microplate reader (Biotek, Elx808).
(§6) The coated plates were incubated with serial dilutions of the monoclonal antibodies for 1 hour at room temperature. The plates were then washed with PBS containing 0.1% Tween-20 (PBS-T). Alkaline Phosphatase-conjugated Goat Anti-Human IgG (Southern Biotech, 2040-04, 1:1000 in PBS-B) was added. The secondary antibody reactions were incubated for 1 h. Plates were washed three times with PBS-T, and P-NitroPhenyl Phosphate (pNPP, Sigma-Aldrich, cat #N2765-100TAB) substrate was added and incubated for 30 min or until the development of a colorimetric reaction. The absorbance at 405 nm was measured by a microplate reader (Biotek, Elx808). The data was plotted with Graphpad Prism software. Representative mAbs from each class were tested for their binding to O1 LPS (FIG. 2A) and O2 LPS (FIG. 2B), and EC50 values were obtained (FIG. 2C). The majority of the anti-O2 LPS mAbs bound to both O1 and O2 LPS by ELISA. […] None of these LPS mAbs bound to the 03, 04, 05, 07, or 012 LPS serotypes (see e.g., FIG. 1A).

[8] = test system: O2 LPS; experiment: ELISA binding to O2 LPS; set-up: species or system Klebsiella pneumoniae; settings: secondary screening, ELISA
Protocol: as §5, §6

[9] = test system: K. pneumoniae 43816ΔcpsBLux (O1); experiment: Opsonophagocytic killing (OPK) assay, O1 capsule mutant; format: cell-based, Klebsiella pneumoniae; set-up: key to D Capsule OPK O1: +++: Strongly positive activity; +: Positive activity; +/−: Somewhat positive depending upon the test conditions; settings: capsule mutant strain 43816ΔcpsB lux (O1)
Protocol: as §2

Row | Molecule | neutralizing activity against O1 LPS (NF-κB activation) [1] | LPS Neut O2 [2] | neutralizing activity against O2 LPS (NF-κB activation) [2] | D Capsule OPK O2 [3] | OPK activity against O2 capsule mutant [3] | Mouse protection models (O2) [4] | protection from lethal bacterial challenge, Kp961842_O2 [5] | protection from lethal bacterial challenge, Kp977778_O2 [6] | binding to LPS-O1 [7] | binding to LPS-O2 [8] | neutralization of LPS-O2 [2] | D Capsule OPK O1 [9] | neutralization of LPS-O1 ([1]; secondary screening)
1 | B1 | no activity | +/− | moderate neutralizing activity | +++ | strong OPK activity | +++ |  |  |  |  |  |  | 
2 | B2 |  | +/− |  | +++ |  | +++ | protected | protected |  |  |  |  | 
3 | B3 | no activity | + | moderate neutralizing activity | + |  |  |  |  | confirmed to bind | confirmed to bind | neutralize | + | 
4 | B4 | blocked |  | blocked |  | showed OPK activity |  |  |  | bind | bind | neutralize |  | neutralize
